Experimental data published in PMC4507534.

Experiments:
Test in all cases: purified protein
Conditions in all cases: pH and temperature of the kinetic assay not given
[1] = substrate: C#CCOC(=O)[C@@H](C)Oc1ccc(Oc2ncc(Cl)cc2F)cc1
[2] = substrate: CCCCOC(=O)[C@@H](C)Oc1ccc(Oc2ccc(C(F)(F)F)cn2)cc1
[3] = substrate: CCOC(=O)[C@@H](C)Oc1ccc(Oc2cnc3cc(Cl)ccc3n2)cc1
[4] = substrate: CCOC(=O)[C@@H](C)Oc1ccc(Oc2nc3ccc(Cl)cc3o2)cc1
[5] = substrate: COC(=O)C(C)Oc1ccc(Oc2ccc(Cl)cc2Cl)cc1
[6] = substrate: COC(=O)[C@@H](C)Oc1ccc(Oc2ncc(C(F)(F)F)cc2Cl)cc1

B1: FeH (FE-hydrolyzing carboxylesterase) (Rhodococcus sp. JPL-2) (protein)
chain: MSDIHGVCDARFSALREALERNLDSGEDVGASIAVTLDGEPVVDIWGGSMDAGGSRPWERDTITNVWSCSKTVTALAALMLVDRGQLDLDAPVARYWSDFAANGKEGILVRHLLSHTSGVSGWDQPFTMDDLADTTKATELLAAQAPWWEPGTASGYHALNYGHLIGEVVRRVDGRTLTGFIEEEISRPLGADFRLGVARSDYSRVSEVIPPPPLPIDFATLDPASVMVKTFTGPPADATAAWGDGWREAEIGAANGHSNARALARIQSVIACGGRVGGVRLLSADTIDAIFDEQSYGVDLVLGVPVRFGVGFGLPTPESVPFVPEGRICFWGGWGGSQIIVDTERRMTVAYVMNKMGPGLLGSDRSAEYVSAAFAAVP
[1]
  Km: 290 µM
  kcat: 0.61 s⁻¹
  kcat/Km: 2090 M⁻¹ s⁻¹
[2]
  Km: 360 µM
  kcat: 0.59 s⁻¹
  kcat/Km: 1650 M⁻¹ s⁻¹
[3]
  Km: 230 µM
  kcat: 0.75 s⁻¹
  kcat/Km: 3250 M⁻¹ s⁻¹
[4]
  Km: 200 µM
  kcat: 0.7 s⁻¹
  kcat/Km: 3520 M⁻¹ s⁻¹
[5]
  Km: 410 µM
  kcat: 0.33 s⁻¹
  kcat/Km: 810 M⁻¹ s⁻¹
[6]
  Km: 390 µM
  kcat: 0.37 s⁻¹
  kcat/Km: 940 M⁻¹ s⁻¹
